# pKd: −log10 of the molar value.
# What was measured:
# [1] = target: respiratory syncytial virus protein F (respiratory syncytial virus) (UniProt P03420); test: plasmonic light-scattering biosensor array (localised gold nanoparticle plasmon); Fab assay: RSVF immobilised on array spots by EDC/NHS coupling, BSA reference spots and BSA blocking; NISTmAb injected at 1.56, 3.23 and 6.25 nM in PBS; global fit to the Langmuir 1:1 model
# [2] = target: Pierce recombinant protein A/G; test: plasmonic light-scattering biosensor array (localised gold nanoparticle plasmon); Fc assay: protein A/G immobilised on array spots by EDC/NHS coupling, BSA reference spots and BSA blocking; antibody in PBS; NISTmAb kinetics from a global Langmuir fit to low concentrations with ϑm floating; all antibody samples at 100 nM for 300 s, 500 s wash
# [3] = target: NISTmAb (NIST RM 8671), recombinant humanized IgG1κ specific to respiratory syncytial virus protein F (human (humanized IgG1κ)); test: plasmonic light-scattering biosensor array (localised gold nanoparticle plasmon); antigen assay: antibody (100 nM) first captured by its Fc on the protein A/G surface, then antigen at 100 nM in PBS injected for 300 s; stoichiometry from ϑm antigen/ϑm Fc normalised for the masses of antigen and intact IgG
# Sequence of NISTmAb (NIST RM 8671), recombinant humanized IgG1κ specific to respiratory syncytial virus protein F (human (humanized IgG1κ)) (heavy, as listed by the source, chain 1 of 2): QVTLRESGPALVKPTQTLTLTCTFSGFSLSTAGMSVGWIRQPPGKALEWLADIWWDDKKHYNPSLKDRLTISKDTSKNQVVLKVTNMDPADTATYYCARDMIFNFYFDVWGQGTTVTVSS
# Sequence of NISTmAb (NIST RM 8671), recombinant humanized IgG1κ specific to respiratory syncytial virus protein F (human (humanized IgG1κ)) (light, as listed by the source, chain 2 of 2): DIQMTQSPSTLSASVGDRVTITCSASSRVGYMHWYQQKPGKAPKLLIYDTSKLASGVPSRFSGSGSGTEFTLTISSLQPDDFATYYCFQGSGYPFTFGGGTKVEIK
Substance,pKd [1],koff [1],kon [1],koff [2],kon [2],stoichiometry N (antigens per antibody) [3]
"NISTmAb (NIST RM 8671), recombinant humanized IgG1κ specific to respiratory syncytial virus protein F (antibody)",8.57,0.00024 s⁻¹,89000 M⁻¹ s⁻¹,2e-05 s⁻¹,59000 M⁻¹ s⁻¹,–
respiratory syncytial virus protein F (from UniProt P03420 26-574) (natural protein),–,–,–,–,–,1.31

# Source: PMC6718376
